In test [1] the target is T1, IFNAR1 (human, UniProt P17181 28-557).
T1 sequence (looked up): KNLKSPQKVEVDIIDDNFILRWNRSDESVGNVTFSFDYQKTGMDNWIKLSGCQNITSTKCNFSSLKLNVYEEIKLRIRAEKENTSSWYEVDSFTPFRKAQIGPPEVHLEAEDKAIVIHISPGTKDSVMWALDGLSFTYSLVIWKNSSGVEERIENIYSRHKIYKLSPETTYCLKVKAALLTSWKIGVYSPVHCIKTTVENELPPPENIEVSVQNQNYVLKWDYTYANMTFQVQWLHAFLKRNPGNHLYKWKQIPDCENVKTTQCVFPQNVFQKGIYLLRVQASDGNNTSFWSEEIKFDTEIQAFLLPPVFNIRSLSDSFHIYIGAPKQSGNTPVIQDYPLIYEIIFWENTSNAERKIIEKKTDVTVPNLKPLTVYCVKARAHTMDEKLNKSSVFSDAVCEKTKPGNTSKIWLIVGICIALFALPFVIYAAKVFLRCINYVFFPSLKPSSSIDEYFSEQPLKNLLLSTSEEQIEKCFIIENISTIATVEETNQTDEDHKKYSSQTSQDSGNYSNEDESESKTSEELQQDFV
The test is described as follows: cell-based or functional assay.

For test [2], the target named is T1, IFNAR1. Kind of test: cell-based or functional assay. This is another data set of the same source.
The target of test [3] is T2, recombinant human BAFF (R&D cat: 7537-BF-025/CF) (human, UniProt Q9Y275 134-285). The test is described as follows: cell-based or functional assay.
Test [4] deals with T2, recombinant human BAFF (R&D cat: …). The test is described as follows: cell-based or functional assay. The source holds these as a separate data set.
For test [5], the target named is T3, recombinant human APRIL (R&D cat: 5860-AP-010/CF) (human, UniProt O75888 105-250, limits assumed).
T3 sequence (looked up): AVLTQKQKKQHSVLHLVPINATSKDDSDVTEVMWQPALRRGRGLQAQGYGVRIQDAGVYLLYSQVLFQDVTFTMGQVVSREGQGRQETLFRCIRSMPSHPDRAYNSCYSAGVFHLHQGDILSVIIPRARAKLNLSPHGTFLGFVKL
Kind of test: cell-based or functional assay.

Test [6] deals with T4, APRIL (Acro Biosystems, Cat: APL-H52D1) (UniProt O75888 115-250, limits assumed).
T4 construct: also called ARPIL
T4 sequence (looked up): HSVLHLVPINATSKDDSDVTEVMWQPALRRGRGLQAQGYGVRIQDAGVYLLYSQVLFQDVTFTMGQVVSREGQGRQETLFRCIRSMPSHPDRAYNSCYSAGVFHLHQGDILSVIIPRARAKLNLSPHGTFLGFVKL
The test is described as follows: ELISA, APRIL coated; reference telitacicept. (In an ELISA, binding on a coated surface is turned into a signal by an enzyme label.)

Test [7] has as its target T4, APRIL (Acro Biosystems, Cat: APL-H52D1). The test is described as follows: ELISA, APRIL coated at 1 ug/mL, anti-human Fc-HRP, OD450. Here is the method:
The capabilities of fusion proteins B606401, B637302, B746201, and B805201 to bind to BAFF and APRIL were assessed by ELISA as follows:
(§1) BAFF (PeproTech, Cat: 310-13) or ARPIL (Acro Biosystems, Cat: APL-H52D1) was diluted to 1 μg/mL with PBS, and a 96-well plate was coated with the dilution overnight at 4° C. The plate was washed with PBST and blocked with Blocking Buffer (PBST containing 1% BSA) at 37° C. for 1 h. The plate was tapped. The test antibodies were diluted with Blocking Buffer. Incubation was performed at 37° C. for 1.5 h. The plate was washed with PBST. An HRP-mouse anti-human Fc antibody (GenScript, Cat: A01854-200) was diluted with Blocking Buffer. Incubation was performed at 37° C. for 40 min. The plate was washed with PBST. 100 μL of TMB substrate solution (Biopanda, Cat: TMB-S-003) was added, and color development was performed at 37° C. for 3 min. 100 μL of ELISA stop solution (Solarbio, Cat: C1058) was added. OD450 was measured.

Test [8] addresses T5, BAFF (PeproTech, Cat: 310-13) (UniProt Q9Y275 134-285). The test is described as follows: ELISA, BAFF coated; reference telitacicept. Here is the method:
as §1, with “The capabilities of TACI-BCMA fusion proteins (B575701, B575702, B575703, and B575704) to bind to BAFF and APRIL were assessed by ELISA as follows: BAFF (PeproTech,” for “BAFF (PeproTech,”, “96-well plate (Costar, Cat: 3590) was coated” for “96-well plate was coated”
(§2) The capability of B575702 to bind to BAFF was consistent with that of B575704, and their EC₅₀ values decreased to ¼ of that of telitacicept. The capability of B575701 to bind to BAFF was consistent with that of B575703, and their EC₅₀ values decreased to ½ of that of telitacicept.

Test [9] concerns the target T5, BAFF (PeproTech, Cat: 310-13). Kind of test: ELISA, BAFF coated at 1 ug/mL, anti-human Fc-HRP, OD450. Here is the method:
as §1, with “The capabilities of TACI-BCMA fusion proteins (B575701, B575702, B575703, and B575704) to bind to BAFF and APRIL were assessed by ELISA as follows: BAFF (PeproTech,” for “BAFF (PeproTech,”, “96-well plate (Costar, Cat: 3590) was coated” for “96-well plate was coated”
as §2

For test [10], the target named is T4, APRIL (Acro Biosystems, Cat: APL-H52D1). Kind of test: ELISA, APRIL coated at 1 ug/mL, anti-human Fc-HRP, OD450. As to the method: as §1, with “The capabilities of TACI-BCMA fusion proteins (B575701, B575702, B575703, and B575704) to bind to BAFF and APRIL were assessed by ELISA as follows: BAFF (PeproTech,” for “BAFF (PeproTech,”, “96-well plate (Costar, Cat: 3590) was coated” for “96-well plate was coated”
(§3) The capabilities of the 4 fusion proteins to bind to APRIL were all stronger than that of telitacicept, and their EC₅₀ values decreased to ¼ to ⅓ of that of telitacicept.
This is another data set of the same source.

For test [11] the target is unchanged. The test is described as follows: ELISA, APRIL coated; reference telitacicept; range told of the 4 fusion proteins, upper end tied to B575703 by Table 5. As to the method: as §1, with “The capabilities of TACI-BCMA fusion proteins (B575701, B575702, B575703, and B575704) to bind to BAFF and APRIL were assessed by ELISA as follows: BAFF (PeproTech,” for “BAFF (PeproTech,”, “96-well plate (Costar, Cat: 3590) was coated” for “96-well plate was coated”
as §3

Test [12] has the same target. Kind of test: ELISA, APRIL coated; reference telitacicept; range told of the 4 fusion proteins, lower end tied to B575702 by Table 5. As to the method:
as §1, with “The capabilities of TACI-BCMA fusion proteins (B575701, B575702, B575703, and B575704) to bind to BAFF and APRIL were assessed by ELISA as follows: BAFF (PeproTech,” for “BAFF (PeproTech,”, “96-well plate (Costar, Cat: 3590) was coated” for “96-well plate was coated”
as §3

Where two headings read alike, the source gives them in different places.

T2 sequence (Q9Y275 134-285 limits assumed): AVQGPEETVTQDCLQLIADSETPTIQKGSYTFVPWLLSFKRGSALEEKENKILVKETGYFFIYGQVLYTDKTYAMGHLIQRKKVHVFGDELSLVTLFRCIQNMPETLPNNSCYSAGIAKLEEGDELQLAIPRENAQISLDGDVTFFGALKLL
T5 sequence (Q9Y275 134-285 limits assumed): as above

B1: B805201 (other)
heavy: EVQLVQSGAEVKKPGESLKISCKGSGYIFTNYWIAWVRQMPGKGLESMGIIYPGDSDIRYSPSFQGQVTISADKSITTAYLQWSSLKASDTAMYYCARHDIEGFDYWGRGTLVTVSSASTKGPSVFPLAPSSKSTSGGTAALGCLVKDYFPEPVTVSWNSGALTSGVHTFPAVLQSSGLYSLSSVVTVPSSSLGTQTYICNVNHKPSNTKVDKRVEPKSCDKTHTCPPCPAPEFEGGPSVFLFPPKPKDTLMISRTPEVTCVVVDVSHEDPEVKFNWYVDGVEVHNAKTKPREEQYNSTYRVVSVLTVLHQDWLNGKEYKCKVSNKALPASIEKTISKAKGQPREPQVYTLPPSRDELTKNQVSLTCLVKGFYPSDIAVEWESNGQPENNYKTTPPVLDSDGSFFLYSKLTVDKSRWQQGNVFSCSVMHEALHNHYTQKSLSLSPGKGGGGSGGGGSGGGGSSTSCREEQGEFYDHLLRDCISCASICGQHPKQCAAFCE
light: EIVLTQSPGTLSLSPGERATLSCRASQSVSSSFFAWYQQKPGQAPRLLIYGASSRATGIPDRLSGSGSGTDFTLTITRLEPEDFAVYYCQQYDSSAITFGQGTRLEIKRTVAAPSVFIFPPSDEQLKSGTASVVCLLNNFYPREAKVQWKVDNALQSGNSQESVTEQDSKDSTYSLSSTLTLSKADYEKHKVYACEVTHQGLSSPVTKSFNRGEC
notes: Fusion protein of anifrolumab and TACI-19-16 (C-terminus of the heavy chain); also called B80521
One may read the EC50 as the concentration at which the effect is half-maximal. The low end stands for higher potency in that assay, the high end for lower potency in that assay. Consider B1, for which, in the test with IFNAR1 [1], the “IC50, inhibition of IFN-alpha-induced in vitro differentiation of B cells into plasma cells (CD27+ CD38+)” value was determined as 6.21 nM. Also, the “IC50 (nM), inhibition of the activity of type I interferons (IFN-beta, HEK-Blue IFN-alpha/beta reporter cells)” value with IFNAR1 [2] stood at 1.63 nM. In test [3], the “Flow cytometry proliferating B cell proportion (%), mean value, BAFF-induced, drug at 10 nM (IgG1: 40.15)” value was found to be 20.4%; the “Flow cytometry proliferating B cell proportion (%), mean value, BAFF-induced, drug at 100 nM (IgG1: 40.60)” value was 24.3%; the “Flow cytometry proliferating B cell proportion (%), mean value, BAFF-induced, drug at 1000 nM (IgG1: 33.97)” value worked out at 15%. For the same molecule, in test [4], the “CD27+ CD38+ plasma cell count, mean value, BAFF + APRIL-induced (both ligands together), drug at 100 nM (IgG1: 2496)” value came to 426 cells and the “CD27+ CD38+ plasma cell count, mean value, BAFF + APRIL-induced (both ligands together), drug at 1000 nM (IgG1: 2279)” value was 438 cells. In addition, in [5], the “CD27+ CD38+ plasma cell count, mean value, BAFF + APRIL-induced (both ligands together), drug at 10 nM (IgG1: 2687)” value is 434 cells; the “CD27+ CD38+ plasma cell count, mean value, BAFF + APRIL-induced (both ligands together), drug at 100 nM (IgG1: 2496)” value amounted to 426 cells; the “CD27+ CD38+ plasma cell count, mean value, BAFF + APRIL-induced (both ligands together), drug at 1000 nM (IgG1: 2279)” value worked out at 438 cells. The “EC50 relative to telitacicept” value in test [6] is 0.333 fold. In test [7], this molecule returned an EC50 of 0.182 nM and an Emax of 2.85.

B2: B575703 (Fc fusion)
chain: SRVDQEERFPQGLWTGVAMRSCPEEQYWDPLLGTCMSCKTICNHQSQRTCAAFCRSLSCRKEQGKFYDHLLRDCISCASICGQHPKQCAYFCENKLRSPVNLPPELMLQMAGQCSQNEYFDSLLHACIPCQLRCSSNTPPLTCQRYCNASVTNSVKGTNADKTHTCPPCPAPEAEGAPSVFLFPPKPKDTLMISRTPEVTCVVVDVSHEDPEVKFNWYVDGVEVHNAKTKPREEQYNSTYRVVSVLTVLHQDWLNGKEYKCKVSNKALPSSIEKTISKAKGQPREPQVYTLPPSRDELTKNQVSLTCLVKGFYPSDIAVEWESNGQPENNYKTTPPVLDSDGSFFLYSKLTVDKSRWQQGNVFSCSVMHEALHNHYTQKSLSLSPGK
notes: TACI-BCMA fusion protein; also called TACI-T2-BCMA-ECD-Fc
With B2, the “EC50 relative to telitacicept” value in test [8] was determined as 0.5 fold; in [11], 0.333 fold. The concentration giving a half-maximal response (EC50) is 0.352 nM in test [9] and 0.264 nM in [10]. The Emax in [9] is 2.43 nM (as printed); in test [10] it was 2.78.

B3: B575702 (Fc fusion)
chain: MLQMAGQCSQNEYFDSLLHACIPCQLRCSSNTPPLTCQRYCNASVTNSVKGTNALSCRKEQGKFYDHLLRDCISCASICGQHPKQCAYFCENKLRSPGDKTHTCPPCPAPEAEGAPSVFLFPPKPKDTLMISRTPEVTCVVVDVSHEDPEVKFNWYVDGVEVHNAKTKPREEQYNSTYRVVSVLTVLHQDWLNGKEYKCKVSNKALPSSIEKTISKAKGQPREPQVYTLPPSRDELTKNQVSLTCLVKGFYPSDIAVEWESNGQPENNYKTTPPVLDSDGSFFLYSKLTVDKSRWQQGNVFSCSVMHEALHNHYTQKSLSLSPGK
notes: TACI-BCMA fusion protein; also called BCMA-ECD-TACI-d2-Fc
B3: the “EC50 relative to telitacicept” value in [8] and in test [12] was 0.25 fold each time. The EC50 in test [9] was determined as 0.166 nM; in [10], 0.171 nM. Also, the Emax in [9] is 2.24 nM (as printed); in [10] it was 2.64.

Values taken from patent US20260056186A1 (JIANGSU HENGRUI PHARMACEUTICALS, published 2026).
